A short description of the data set: amyloid nucleation score (Sup35N fusion, yeast selection) (log enrichment); library NNK3; higher = more nucleation; inactive = no reads after selection. In short, it runs like this: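 Random libraries were run with three technical output replicates. In each, psi-negative yeast expressing Sup35N fused to peptides of 20 random codons were induced 24 hours with 100 μM copper sulfate and grown 7 days at 30°C on medium lacking adenine and uracil, and input and output plasmid inserts were Illumina-sequenced. The nucleation score is the DiMSum log enrichment of output over input reads, centred on the mode score of non-aggregating sequences, and sequences under 100 input reads were excluded.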

± gives the uncertainty stated by the source.

Take DISHKLNTTIVMYFREALRG: the amyloid nucleation score entry is “inactive”.

For the substance GYLSFIVFMGGRPSLSGNSI, the amyloid nucleation score is 1.42 ± 0.14.

For NSMHAATWLEARRRLDKEGF, the amyloid nucleation score was -0.753 ± 1.3.

For RYCIVLTDNVNTLHNLIIMV, the amyloid nucleation score entry is “inactive”.

For RFGVSKLARAS, the amyloid nucleation score entry is “inactive”.

For NSLNMRFTLQQTLMGQMNYV, the amyloid nucleation score entry was “inactive”.

Consider SNFAMGVRLY, for which the amyloid nucleation score entry was “inactive”.

Take ICDKRWVC: the amyloid nucleation score entry was “inactive”.

Take ERSHVCCGNDRYTLLWRVYS: the amyloid nucleation score entry is “inactive”.

Regarding VKEPPTCVTCSAHSIRSGYS, the amyloid nucleation score entry was “inactive”.

For YRVSEELTLLY, the amyloid nucleation score result is “inactive”.

On to APSYISRFVLLTDMPEAQTL, for which the amyloid nucleation score result was “inactive”.

ILTHTEVCIPSVRTLSGCKG: the amyloid nucleation score result is “inactive”.

With LVFIWAKTHRHQLFVTEAEL, the amyloid nucleation score entry is “inactive”.

With VGHIRVLDEDNNYMSFYDMR, the amyloid nucleation score result is “inactive”.

Regarding STTMAFAAIVFEIYSVTSWF, the amyloid nucleation score entry is “inactive”.

As for FSSFG, the amyloid nucleation score result was “inactive”.

With GAHANM, the amyloid nucleation score result was “inactive”.

Consider VMSKIISTQLVDMR, for which the amyloid nucleation score entry was “inactive”.

As for HSQKTTKALRNPSNIQ, the amyloid nucleation score entry was “inactive”.

For the substance TYKIIRYFLNLICSFRGPMP, the amyloid nucleation score result was “inactive”.

As for VCDSHQ, the amyloid nucleation score entry is “inactive”.

Substance GFGYCVWQESGNLRGCRWLW returned an amyloid nucleation score of 0.5 ± 0.39.

Turning to AISGIPESIVMLSYFRL, the amyloid nucleation score entry was “inactive”.

Regarding LTAYGNVNCV, the amyloid nucleation score entry was “inactive”.

Turning to LTDSY, the amyloid nucleation score result is “inactive”.

In turn, YISEWSLSP returned an amyloid nucleation score of 0.909 ± 0.13.

Take IGKRSVRVIDPVFYKPFANM: the amyloid nucleation score result is “inactive”.

Regarding IDSCLQNSP, the amyloid nucleation score entry is “inactive”.

Substance FHRTEGCECVASLKVARGVV gave an amyloid nucleation score of 0.223 ± 0.31.

Substance ALCMIYFW yielded an amyloid nucleation score of 2.79 ± 0.076.

With WSDIIVGIRTNCDVLFSGAY, the amyloid nucleation score result is “inactive”.

GWKANWELCRVYVQWSGLNV yielded an amyloid nucleation score of 0.422 ± 0.38.

In the case of FDIYLCDMYSLIFVCTGRLP, the amyloid nucleation score was -0.544 ± 0.66.

With VKFSTRNFNKVQLHVFTTCM, the amyloid nucleation score result is “inactive”.

FCENRFTSFLKNVIIW yielded an amyloid nucleation score of 0.398 ± 0.18.

Regarding GYYANGISRPVILLMFWRVR, the amyloid nucleation score result is “inactive”.

In the case of SWYAKGFI, the amyloid nucleation score entry is “inactive”.

In the case of NFFVTFICAFEEAYMTKQLR, the amyloid nucleation score is 2 ± 0.082.

Turning to LYVWLAWYWVYPINHALVVC, the amyloid nucleation score result was “inactive”.

As for HMTGARRN, the amyloid nucleation score entry was “inactive”.

With LYKGYYVLMLEWARDKIHSA, the amyloid nucleation score result was “inactive”.

As to GLFCPVYS, the amyloid nucleation score result is “inactive”.

AEQCEPLWCFWKKRSL displayed an amyloid nucleation score of 0.792 ± 0.18.

Substance CLNGSCAMLSGLVCLLCNRQ returned an amyloid nucleation score of 2.38 ± 0.058.

Take GALMCPPRLVS: the amyloid nucleation score entry is “inactive”.

As to FLWGICWYRMVMKAHFDFIC, the amyloid nucleation score entry is “inactive”.

The substance WVKPSSFWGFERNTYDIYIG gave an amyloid nucleation score of -0.176 ± 0.62.

Regarding IMLLLYSESYLTPRTVVNSR, the amyloid nucleation score result was “inactive”.

GYRSCCCEKLRSRSCGSSWA: the amyloid nucleation score entry was “inactive”.

On to PYAGCIH, for which the amyloid nucleation score entry is “inactive”.

In the case of SRSVDLLSLSRYIYLESRYD, the amyloid nucleation score entry was “inactive”.

IGVTPDHRSMLGRNLCLC: the amyloid nucleation score entry is “inactive”.

In turn, NVVIFML registered an amyloid nucleation score of 2.47 ± 0.076.

On to RFYKRICLLYPTRSEGESGF, for which the amyloid nucleation score entry was “inactive”.

Values taken from the supplement of paper PMC12042874.
